Among the data in the RNAGym collection of RNA variant scans (doi:10.7554/elife.80360) are self-cleavage values, retold here.

The chains are these.
B1: HDV Ribozyme (parent)
chain: GGCCGGCAUGGUCCCAGCCUCCUCGCUGGCGCCGGCUGGGCAACAUUCCGAGGGGACCGUCCCCUCGGUAAUGGCGAAUGGGACCCA

The data set covers variants of B1. The data set is described as follows: self-cleavage, relative activity (ratio to wild type); higher = more cleavage; co-transcriptional.
Consider C24U A70G, for which the self-cleavage was 0.706.

For G29U C41G, the self-cleavage was 0.0302.

For the variant G25U C26U, the self-cleavage worked out at 0.0415.

Regarding C3U A77U, the self-cleavage stood at 0.354.

For G1C C44U, the self-cleavage is 0.0615.

As to G25C C36G, the self-cleavage was 0.0519.

With G54U U79A, the self-cleavage is 0.982.

In the case of C62U G73A, the self-cleavage was determined as 0.808.

Take C13A G52C: the self-cleavage came out at 0.383.

Turning to C4A G25A, the self-cleavage turned out to be 0.089.

On to G5A U9A, for which the self-cleavage was 0.332.

Take A45U A83G: the self-cleavage was determined as 0.847.

As to C18A A83G, the self-cleavage came to 0.0443.

Consider G39U C57A, for which the self-cleavage is 0.941.

Regarding G54U A56U, the self-cleavage turned out to be 0.953.

For the variant G50A G52U, the self-cleavage came to 0.688.

Turning to G40A U65C, the self-cleavage turned out to be 1.12.

G5C G82A: the self-cleavage amounted to 0.123.

On to G55U C61G, for which the self-cleavage came to 1.11.

Regarding C44U C48A, the self-cleavage is 0.779.

Turning to C32U G50A, the self-cleavage was 0.862.

G73C G80C: the self-cleavage came out at 0.109.

On to A8C C84G, for which the self-cleavage came to 0.208.

In the case of G6A U12G, the self-cleavage is 0.415.

C24U G28A: the self-cleavage came out at 0.172.

Regarding G11C U23C, the self-cleavage stood at 0.277.

For A42U U79G, the self-cleavage turned out to be 0.222.

Take U20A C85G: the self-cleavage was 0.107.

With A45G A87U, the self-cleavage was 0.911.

In the case of G81A, the self-cleavage is 0.403.

With G17U U46C, the self-cleavage was 0.356.

G2C G54C: the self-cleavage came to 0.0208.

U23C C62A: the self-cleavage was 0.762.

With C14G C18A, the self-cleavage came out at 0.17.

In the case of C30U A87C, the self-cleavage stood at 0.755.

Consider C3A U46A, for which the self-cleavage came out at 0.148.

Take G2U U79G: the self-cleavage came out at 0.

For A42G G52U, the self-cleavage stood at 0.501.

With C63G A71C, the self-cleavage is 0.782.

On to G6A G31U, for which the self-cleavage came out at 0.219.

Take G6A G29C: the self-cleavage is 0.0326.

On to U20G A45C, for which the self-cleavage came to 0.158.

As to G50C G82U, the self-cleavage is 0.217.

With G54A C58U, the self-cleavage was determined as 1.22.

With C26G A83C, the self-cleavage was found to be 0.785.

Regarding G11U G50A, the self-cleavage is 0.415.

As to U46G C49U, the self-cleavage stood at 0.8.

Regarding C7U C32A, the self-cleavage stood at 0.0707.

Turning to C44U G80A, the self-cleavage was determined as 0.125.

Consider C61G G74C, for which the self-cleavage amounted to 0.225.

With U47A U60C, the self-cleavage came out at 0.88.

With G10A A70C, the self-cleavage came to 0.48.

G10U C32G: the self-cleavage is 0.0554.

Turning to C18G C62U, the self-cleavage is 0.308.

For the variant A8G C14G, the self-cleavage turned out to be 0.

Take G54A U72G: the self-cleavage turned out to be 0.453.

With G25U G50C, the self-cleavage stood at 0.136.

In the case of U9G C64A, the self-cleavage is 0.831.

In the case of C4G C18A, the self-cleavage was 0.0287.

Regarding G31U A43G, the self-cleavage amounted to 0.0475.

As for C57A G76U, the self-cleavage amounted to 1.16.

For the variant G29U C49U, the self-cleavage was 0.0583.

Regarding A43G U47C, the self-cleavage was 0.748.

On to A42G A77U, for which the self-cleavage is 0.

Regarding U37A C44G, the self-cleavage amounted to 0.0898.

For the variant G29U, the self-cleavage is 0.0885.

Consider A16C G67C, for which the self-cleavage worked out at 0.692.

On to C41U C49G, for which the self-cleavage turned out to be 0.317.

As for C3U G39A, the self-cleavage came out at 0.21.

Consider C3U G39C, for which the self-cleavage was found to be 0.0804.

Consider G35C G76U, for which the self-cleavage is 0.465.

As to G25C C66U, the self-cleavage came to 0.0563.

In the case of A43C G55A, the self-cleavage is 0.511.

Take U9G G25U: the self-cleavage was determined as 0.383.

With C49A G50C, the self-cleavage worked out at 1.15.

Consider G28C G81A, for which the self-cleavage was 0.104.

Regarding C3G A8C, the self-cleavage came out at 0.293.

With C58G U72A, the self-cleavage was determined as 0.594.

Consider U60G G81U, for which the self-cleavage worked out at 0.123.

Turning to C62U G68C, the self-cleavage is 0.818.

On to U47G G53U, for which the self-cleavage worked out at 0.973.

For the variant G38C A51C, the self-cleavage amounted to 0.277.

As to C7U G25A, the self-cleavage amounted to 0.212.

As to C36G A71U, the self-cleavage was 0.095.

For the variant C22G C48A, the self-cleavage turned out to be 0.141.

As for U60A A70C, the self-cleavage was found to be 0.808.

Take C33G G50A: the self-cleavage worked out at 0.148.

Regarding U60A C66A, the self-cleavage was 0.972.

Take G54A A77C: the self-cleavage came to 0.383.

As for C61A U72C, the self-cleavage was 0.686.

Turning to C58A G67U, the self-cleavage turned out to be 0.946.

As to G34C U79C, the self-cleavage was 0.227.

Take A51C U60C: the self-cleavage stood at 1.15.

G76C U79G: the self-cleavage is 0.617.

With C21G U46C, the self-cleavage amounted to 0.104.

Consider C63U C85G, for which the self-cleavage came out at 0.959.

With G17A C49G, the self-cleavage is 0.565.

Take U46A C58U: the self-cleavage worked out at 0.482.

As for G28A C30A, the self-cleavage amounted to 0.149.

On to G35A C86A, for which the self-cleavage was determined as 0.643.

Turning to G67C C86U, the self-cleavage is 0.979.

Consider A56U C61U, for which the self-cleavage was found to be 0.755.

As to C24G C61G, the self-cleavage worked out at 0.0264.

Regarding C3U G34A, the self-cleavage was 0.106.

For the variant U12C C36U, the self-cleavage was determined as 0.107.

As for C3A C57U, the self-cleavage is 0.701.

Regarding C32A C86G, the self-cleavage was found to be 0.243.

As for G6U C41G, the self-cleavage was found to be 0.237.

On to G10C G35U, for which the self-cleavage was determined as 0.374.

As to G11A C32A, the self-cleavage was 0.0231.

Take G31A C49G: the self-cleavage stood at 0.34.

As to C33U G39A, the self-cleavage was 0.182.

G2C U46A: the self-cleavage was found to be 0.0911.

C18A C30G: the self-cleavage was determined as 0.0573.

In the case of U37C G39U, the self-cleavage came to 0.564.

Take C36U C58G: the self-cleavage stood at 0.759.

With G5A C22G, the self-cleavage was 0.0554.

With U27G U37G, the self-cleavage is 0.391.

For the variant A8G A78G, the self-cleavage came to 0.128.

A43U G55U: the self-cleavage is 0.619.

On to C3U C75U, for which the self-cleavage was determined as 0.197.

For C41A G59U, the self-cleavage was 1.11.

Consider A70G C75U, for which the self-cleavage was found to be 0.136.

Regarding C63G C86A, the self-cleavage stood at 0.95.

For A16G G17U, the self-cleavage amounted to 0.643.

On to C14A U69A, for which the self-cleavage is 0.997.

With A45U A78U, the self-cleavage was 0.155.

For A8C A56C, the self-cleavage came to 0.692.

Consider C18A C24A, for which the self-cleavage was found to be 0.163.

C13U A51U: the self-cleavage is 0.802.

As to C15G C64U, the self-cleavage worked out at 1.02.

As for U27A C85U, the self-cleavage worked out at 0.684.

As for G6C A42U, the self-cleavage stood at 0.158.

In the case of C64U G74C, the self-cleavage came out at 0.128.

As to G2U G39A, the self-cleavage stood at 0.00989.

As to C14G G81C, the self-cleavage came to 0.974.

Take G35C C44G: the self-cleavage worked out at 0.145.

On to U47C A83G, for which the self-cleavage is 0.612.

For the variant G11U C13U, the self-cleavage stood at 0.0674.

On to G1U G5A, for which the self-cleavage came out at 0.445.

As to C30A G39U, the self-cleavage amounted to 0.185.

For the variant C15U C84U, the self-cleavage is 0.962.

On to C4U A51G, for which the self-cleavage is 0.467.

In the case of C14G G59A, the self-cleavage was 0.962.

As to U72G G82C, the self-cleavage turned out to be 0.453.

As to C19U G40U, the self-cleavage amounted to 0.0839.

As to G25A C44G, the self-cleavage was determined as 0.0923.

G28C C85G: the self-cleavage was found to be 0.111.

With G34C C61A, the self-cleavage was found to be 0.208.

For G25C G82A, the self-cleavage came to 0.0361.

With U65A C75A, the self-cleavage came out at 0.185.

Consider C19A G52C, for which the self-cleavage was 0.125.

In the case of G52A U60A, the self-cleavage came to 0.975.

G10U C63U: the self-cleavage is 0.686.

Take U23G: the self-cleavage turned out to be 0.731.

For C3U G53C, the self-cleavage worked out at 0.688.

For the variant G17C A56C, the self-cleavage turned out to be 0.302.

For the variant C41A A77G, the self-cleavage worked out at 0.628.

As to U9A G55A, the self-cleavage was 1.09.

Turning to C36A G54U, the self-cleavage was 0.229.

As for C13G G52U, the self-cleavage came to 0.

In the case of G5U A43G, the self-cleavage was found to be 0.

G17A G29U: the self-cleavage was found to be 0.0767.

On to G29A G50A, for which the self-cleavage was 0.134.

G53A U79G: the self-cleavage was found to be 0.554.

Consider C64A A71G, for which the self-cleavage came to 0.529.

A16G C85A: the self-cleavage came out at 1.32.
